From publication PMC11683240

Columns and labels:
[1] = target: Bordetella pertussis toxin (PT) holotoxin (Bordetella pertussis) (UniProt P04977); experiment: FACS; settings: natural protein
[2] = target: Bordetella pertussis toxin (PT) holotoxin (Bordetella pertussis) (UniProt P04977); experiment: FACS; settings: natural protein; remark: listed apart in the source

Chain of α1-antitrypsin (Prolastin, plasma-derived) (P01009 25-418): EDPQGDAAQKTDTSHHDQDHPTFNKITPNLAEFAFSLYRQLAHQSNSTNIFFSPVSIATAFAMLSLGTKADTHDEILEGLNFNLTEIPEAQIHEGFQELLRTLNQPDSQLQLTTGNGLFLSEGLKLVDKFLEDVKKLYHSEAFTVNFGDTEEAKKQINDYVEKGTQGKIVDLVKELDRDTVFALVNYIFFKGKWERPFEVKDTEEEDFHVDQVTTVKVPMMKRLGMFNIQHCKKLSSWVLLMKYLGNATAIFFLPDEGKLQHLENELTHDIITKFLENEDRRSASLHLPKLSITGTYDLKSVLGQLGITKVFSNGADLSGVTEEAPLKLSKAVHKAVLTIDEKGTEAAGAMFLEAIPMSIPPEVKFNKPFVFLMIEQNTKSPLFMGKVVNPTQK

α1-antitrypsin (Prolastin, plasma-derived) (from UniProt P01009 25-418)
IC50 [1]: 1720 nM
IC50 [2]: 796 nM
